Experimental data from patent US20110217317A1 (published 2011).
Substitutions are numbered along the chain they refer to. Each block holds one binder with its values, some of them ahead of it.

How the values were obtained:
[1] = biological target: T1, Rhesus D antigen (human, UniProt Q02161 2-417); experiment: Fab screening on red blood cells (agglutination/FACS)
T1 construct: whole, on cells; Presented on RhD-positive erythrocytes in all assays; also called RhD; RhD antigen
T1 sequence (looked up): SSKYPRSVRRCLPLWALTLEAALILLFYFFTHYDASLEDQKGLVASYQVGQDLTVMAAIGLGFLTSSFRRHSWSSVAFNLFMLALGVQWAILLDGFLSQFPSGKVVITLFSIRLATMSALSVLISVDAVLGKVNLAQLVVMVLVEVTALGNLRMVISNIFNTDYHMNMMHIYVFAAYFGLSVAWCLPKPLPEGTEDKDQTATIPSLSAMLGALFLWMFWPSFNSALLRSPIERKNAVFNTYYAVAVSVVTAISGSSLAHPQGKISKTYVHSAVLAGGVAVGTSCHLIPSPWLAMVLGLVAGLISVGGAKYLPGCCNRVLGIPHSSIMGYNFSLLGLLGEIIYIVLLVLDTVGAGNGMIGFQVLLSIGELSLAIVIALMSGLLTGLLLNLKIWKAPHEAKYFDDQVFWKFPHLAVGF

[2] = biological target: T1, Rhesus D antigen; experiment: agglutination assay, Fab on RhD(+)/RhD(-) RBC mix
Experimental: After each round of panning single colonies were picked for analysis of their binding properties to red blood cells in agglutination assays. Briefly, single colonies were inoculated into 2×YT/100 μg/mL carbenicillin/1% glucose and shaken overnight at 37° C. The next day, DeepWell plates were inoculated using 900 μl 2×YT/100 μg/mL carbenicillin/0.1% glucose and 10 μl overnight culture. The plates were shaken for two hours at 37° C., before Fab induction was performed with addition of 300 μl 2×YT/100 μg/mL carbenicillin/0.25 mM IPTG per well. The plate was shaken overnight at 30° C. The following day, the bacteria were pelleted by centrifugation (3200×g, 4° C., 10 minutes), and re-suspended in 100 μl of 0.8 M NaCl, 0.2×PBS, 8 mM EDTA, and incubated for 15 minutes on ice in order to perform a periplasmic extraction of the Fab fragments. The plate was transferred to −20° C. and finally the suspension was thawed and centrifugation was performed for 10 minutes at 4° C. and 3200×g. The periplasmic extract was used in ELISA assays for analysis of Fab content and in agglutination assays to evaluate the binding potential of the individual Fab fragments. The agglutination assay was performed as follows: RhD(−) and RhD(+) RBC were mixed in a 1:1 ratio, and washed 3 times in PBS. After the final wash, the cell mix was re-suspended in 1% BSA in PBS at a density of 1% cells, 50 μl was added to each well of a 96-plate. Periplasmic extracts were added to the wells. As a positive control Rhesogamma P immunoglobulin (Aventis) was used according to the manufacturer's instructions. The plates were incubated for one hour at room temperature with gentle shaking. The cells were washed three times with PBS, before the secondary antibody was added (goat anti-human Fab/FITC conjugate, Sigma F5512) in a 1:100 dilution. The plates were left for agglutination for one hour at room temperature without shaking. Fab fragments positive in the agglutination assay was determined by visual inspection, and recorded by taking a picture. Quantization of the binding activity of the Fab fragments was performed by FACS analysis of the agglutination samples.

B1: RhD300.134H09 (Fab, V domains shown)
VH: QVQLVESGGGVVQPGRSLRLSCAASGFTFSSYGMHWVRQAPGKGLEWVAVIWYDGSNKYYADSVKGRFTISRDNSKNTLYLQMNSLRAEDTAVYYCAREFYTRSGLWSQGYSYYMDVWGKGTTVTVSS
VL: QTVVTQEPSFSVSPGGTVTLTCGLSSGSVSARYYPSWYQQTPGQPPRTLIHSTNTRSSGVPDRFSGSILGNKAALTITGAQADDESDYYCVLYMGSGPWVFGGGTKLTVLG
notes: Tested as Fab (periplasmic extract)
- binding result [1]: binds

B2: RhD161.119E09 (Fab, V domains shown)
VH: EVQLVESGGGVVQSGRSLRLSCAASGFTFSNNGMHWVRQAPGKGLEWVAFIWYDGSNKYYADSVKGRFTISRDNSKNTLYLQMDGLRAEDSAVYYCAREEIAARLYSRYHYAMDVWGQGTMVTVSS
VL: DIQMTQSPSFLSASVGDRVTITCRASQGIRRYLAWFQQKPGKAPKLLIFSASTLQSGVPSRFSGSGSGTEFTLTISSLQPEDFATYYCQQLSSYPPYTFGQGTKLEIKR
notes: as for B1
- binding result [2]: binds

B3: RhD317.144A02 (Fab, V domains shown)
VH: QVQLQESGPGLVKPSGTLSLTCAVSGGSIRGSNWWSWVRQPPGKGLEWIGEIHHGGSTNYNPSLKSRVTISVDKSKNRFSLKLSSVTAADTAVYYCARGTSYYDSSGYSFRGLVAFDIWGQGTMVTVSS
VL: EIVLTQSPGTLSLSPGERATLSCRASQSVSSAFLAWYQQKPGQAPRLLIYGASSRATGIPDRFSGSGSGTDFTLTISRLEPEDFAVYYCQQYGSFSITFGQGTRLEIKR
notes: as for B1
- binding result [1]: binds

B4: RhD159.119B09 (Fab, V domains shown)
VH: EVQLVETGGGLVQPGGSLRLSCAASGFSFRSYDMNWVRQAPGKGLEWVSYISGRGSTTYYADSVKGRFTISRDNAKNSLYLQMNSLRAEDTAVYYCARDLYGDYDPKSYYYYAMDVWGHGTTVTVSS
VL: EIVMTQSPGTLSLSPGERATLSCRASHTVSSGYLAWYQQKPGQAPRLLIYGASNRATGVPDRFGGSGSGTDFTLTISRLEPEDSAVYFCQQYGTSPGVTFGQGTRLEIER
notes: as for B1
- binding result [2]: binds

B5: RhD160.119C07 (Fab, V domains shown)
VH: EVQLVESGGGVVQPGRSLRLSCAASGFTFSNYGMHWVRQAPGKGLEWVAVIWYDGSNRFYADSVKGRFTISRDNSKNTLYLQMNNLRAEDTALYSCAREITTTVVVRRHYLMDIWGQGTTVTVSS
VL: DIQLTQSPSSLSASVGDRVSITCRASQGISNSLAWYQQKPGKVPKLLIYAASTLQSGVPSRFSGGGSGTDFTLTISSLQPEDVATYYCQKYNSAPFAFGPGTKVDIKR
notes: as for B1
- binding result [2]: binds

B6: RhD295.119B11 (Fab, V domains shown)
VH: QVQLVESGGGLVQPGGSLRLSCVGSGFTFRSFDMNWVRQAPGKGLEWISYINSRGNTRYYVDSVKGRFTISRDNAKNSLYLQMNSLRAEDTAVYYCARDLYGDYDPKSYYYYGMDVWGQGTMVTVSS
VL: EIVLTQSPGTLSLSPGERATLSCRASQSFSSGYLAWYQQKPGQAPRLLIYGASNRATGIPDRFSGSGSGTDFTLTISRLEPEDFAVYYCQHYGSSPPITFGQGTRLEIKR
notes: as for B1
- binding result [2]: binds

B7: RhD306.223E11 (Fab, V domains shown)
VH: QVQLVESGGGVVQPGRSLRLSCAASGFTFSSYGMHWVRQAPGKGLEWVAVIWYDGSNKYYADSVKGRFTISRDNSKNTLYLQMNTLRDDDTAVYYCAREGTLYSSSWYRRYYYYGMDAWGQGTTVTVSS
VL: EIVLTQSPGTLSLSPGERVTLSCRPSRYIASDYLAWYQLRPGQAPKLLIYGASSRATGIPDRFSGVGSPTDFTLTISRLEPEDFAMYYCHYSGGSPPYPFGQGTRLDIKR
notes: as for B1
- binding result [1]: binds

Second part, the binder after the results:

- binding result [1]: binds
B8: RhD299.127A12 (Fab, V domains shown)
VH: QVQLVESGGGVVQPGRSLRLSCAASGFTFSNFGMHWVRQAPGKGLEWVAVIWYDGSNKDYADSVKGRFTISRDNSKRTLYLQMNSLRAEDTAVYYCARELARGRLRDLDYWGQGTLVTVSS
VL: QAVVTQEPSLTVSPGGTVTLTCASSTGAVTTGYYPNWFQQKPGQAPRALIYSTSKKHSWTPARFSGSLLGGKAALTLSGVQPEDEAEYYCLLFYGGAQLGVFGGGTKLTVLG
notes: as for B1

- binding result [1]: binds
B9: RhD319.187A11 (Fab, V domains shown)
VH: QVQLVESGGGVVQPGRSLRLSCAASGFTFSTYGMHWVRQAPGKGLEWVAVIWYDGSNKNYADSVKGRFTISRDNSKNTLYLQMNSLRAEDTAVYYCARDLQGYRSSWYRMYYYYGMDVWGQGTTVTVSS
VL: B8 VL with A2T, T31S, K55N, F93Y, L99R, G100W, K107I
notes: as for B1

- binding result [1]: binds
B10: RhD301.160A04 (Fab, V domains shown)
VH: QVQLVESGGGVVQPGRSLRLSCAASGFTFSSYGMHWVRQAPGKGLEWVAVIWFDGGNKYYADSAKGRFTISRDNSKNTLYLQMNSLRAEDTAVYYCARDASVLSGLVTRRLVYYGMDVWGQGTTVTVSS
VL: DVVMTQSPLSLPVTPGEPASISCRSSQSLLHRNGYNYLNWYLQKPGQSPQLLIYLGSNRASGVPDRFSGSGSGTDFTLKISGVEAEDVAFYYCMQGLRTPYTFGQGTKLEIKR
notes: as for B1

- binding result [1]: binds
B11: RhD321.187G08 (Fab, V domains shown)
VH: EVQLVESGGGLVKPGGSLRLSCAASGFTFRSYSMNWVRQAPGKGLEWVSSIGSSSIYTYSADSVKGRFTISRDNAKNSLYLQMNSLRAEDTAVYYCARGEPLNYDYIWGRSRLTIHWGQGTLVTVSS
VL: LNFMLTQPHSVSESPGKTVTISCTRSSGSIASNYMQWYQQRPGSSPTTVIYEDNRRPSGVPDRFSGSIDSSSNSASLTISGLKTEDEADYYCQSYDSNNWVFGGGTKLTVLG
notes: as for B1

- binding result [1]: binds
B12: RhD305.181E06 (Fab, V domains shown)
VH: QVQLVESGGGVVQPGRSLRLSCAASGFTFSSYGMHWVRQAPGKGLEWVAGIWYDGSNKYYADSVKGRFTISRDNSRNTMYLQMNSLRAEDTAVYYCAREQGGYSSSWYRRYYYYNMDLWGQGTTVTVSS
VL: EIVLTQSPGSLSLSPGERATLSCRASQSVSSSYLAWYQQKPGQAPRLLIYGPSSRATGIPDRFSGSGSGTDFTLTISRLEPEDFAVYYCQHFGNSRGTFGQGTKVEIRR
notes: as for B1

- binding result [1]: binds
B13: RhD304.164B06 (Fab, V domains shown)
VH: QVQLVQSGGGVVQPGRSLRLSCAASGFTFSSYGMHWVRQAPGKGLEWVAVIWYDGSNKYYADSVKGRFTISRDNSKNTLYLQMNSLRAEDTAVYYCARETVVVAAKIRNHYYYAMDVWGQGTTVTVSS
VL: DIQMTQSPSSLSASLGGTVTLTCRSSQFISRYLNWYQQHPGKVPRLLISGASRLQRGVPSRFTGGGSGTDFTLTIKNVQPDDIATYFCQHSYRSGRAFGQGTTVEVKR
notes: as for B1

- binding result [1]: binds
B14: RhD307.230E11 (Fab, V domains shown)
VH: QVQLVETGGGVVQPGRSLRLSCAASGFTFSSYGMHWVRQAPGKGLEWVAGIWYDGSNKYYGDSVKGRFTISRDNSRNTLYLHMNSLRADDTAVYYCAREHGGSRSGWYTLRLAYYFDYWGQGTLVTVSS
VL: DIQLTQSPSSLSASVGDRVTITCRASQYINVYLNWYQHKAGRAPKLLIYAASNLQSGVPPRFIGSGSGTDFTLTISSLQSEDFATYYCLQSFTVPRTFGPGTKVDVKR
notes: as for B1

- binding result [2]: binds
B15: RhD296.126A03 (Fab, V domains shown)
VH: EVQLVESGGGVVQPGRSLRLSCEASGFTFSNYGMHWFRQAPGKGLEWVAIIWYDGSNKHYADSVKGRFTISRDNSKNTLYLQMNSLRAEDTAVYFCAREIASRGYSRYLYYFDSWGQGTLVTVSS
VL: DIQMTQSPSSLSASVGDRVTITCRASQSISSYLNWYQQKPGKAPKLLIFAASSLQSGVPSRFSGSGSGTDFSLTISSLQPEDFATYYCQQSYSSLALTFGGGTKVEIKR
notes: as for B1

- binding result [1]: binds
B16: RhD302.160B10 (Fab, V domains shown)
VH: QVQLVESGGGVVQPGRSLRLSCAASGFTFSSYGMHWVRQAPGKGLEWVAFISYDGSNKYYADSVKGRFTISRDNSKNTLSLQMNSLRAEDTAVYYCAKEHGYYRSSWYRNYYYYGMDVWGQGTTVTVSS
VL: DIQLTQSPSSLSASVGDRVTITCRASQSISSYLNWYKQRPGKAPKLLIYAASTLQSGVPSRFSGSGSGTDFALTISSLQAEDFATYYCQQTYSTLWTFGQGTKVEITR
notes: as for B1

- binding result [1]: binds
B17: RhD303.160B11 (Fab, V domains shown)
VH: B16 VH with G15E, F50V, S80Y, E99D, H100E, G101V, Y102G, R104S, N110R, G115A
VL: EIVLTQSPGTLSLSPGETATLSCRASQSVSDRDLAWYQQKSGQSPRLLMYGGSTRAPGIPVRFSGSGSGTEFTLTISSLQSEDFAIYYCQHYHDWPPTFGQGTRLEIKR
notes: as for B1
